This experiment has as its target recombinant furin, biotinylated (UniProt P09958). Briefly: BLI. For orientation: In BLI a coated tip is dipped into the sample, and binding shifts an interference pattern.

Sequence of recombinant furin, biotinylated (P09958 27-794): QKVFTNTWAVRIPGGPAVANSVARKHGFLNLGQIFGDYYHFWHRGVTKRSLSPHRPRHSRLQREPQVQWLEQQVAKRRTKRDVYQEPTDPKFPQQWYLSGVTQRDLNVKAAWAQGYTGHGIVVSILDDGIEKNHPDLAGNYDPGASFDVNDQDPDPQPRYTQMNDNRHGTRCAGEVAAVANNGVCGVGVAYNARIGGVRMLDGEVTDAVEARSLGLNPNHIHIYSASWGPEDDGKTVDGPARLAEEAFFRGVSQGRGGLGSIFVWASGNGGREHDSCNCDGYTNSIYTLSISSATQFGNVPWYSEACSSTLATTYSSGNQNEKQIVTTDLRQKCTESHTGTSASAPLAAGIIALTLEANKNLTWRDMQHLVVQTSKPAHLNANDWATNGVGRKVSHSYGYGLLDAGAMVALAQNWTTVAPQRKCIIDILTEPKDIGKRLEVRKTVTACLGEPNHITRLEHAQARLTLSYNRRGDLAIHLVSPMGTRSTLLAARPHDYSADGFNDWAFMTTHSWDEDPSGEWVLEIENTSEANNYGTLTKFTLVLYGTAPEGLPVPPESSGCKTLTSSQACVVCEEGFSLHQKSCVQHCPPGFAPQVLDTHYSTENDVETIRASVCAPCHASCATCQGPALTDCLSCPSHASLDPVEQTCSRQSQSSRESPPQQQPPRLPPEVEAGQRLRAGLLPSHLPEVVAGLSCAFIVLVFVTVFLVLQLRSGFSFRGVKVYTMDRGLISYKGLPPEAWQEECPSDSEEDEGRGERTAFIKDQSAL

In the case of farletuzumab-FuG1 (antibody), the fold reduction of koff against farletuzumab-cFuG1 came to 10 fold.

(Values after PMC8826744.)
